# Laboratory results published in US20190008977A1 (ASCENDIS PHARMA GROWTH DISORDERS A S, published 2019).
# Bridge positions count the residues as written; N and C are the ends. Side chains are listed from the residue outwards. Ends that are not written are not given here. * marks the point of attachment. Hexanoyl(6-maleimido) = O=C1C=CC(=O)N1CCCCCC(=O)*; reversible prodrug linker = not defined here
# Assays:
# [1] = molecular target: T1, permanent N-terminal CNP-34 PEG 5 kDa conjugate 14e
# T1 chain: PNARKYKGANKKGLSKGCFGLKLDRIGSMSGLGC
# [2] = molecular target: T2, permanent Lys26 CNP-38 PEG4x10 kDa conjugate 12g
# T2 chain: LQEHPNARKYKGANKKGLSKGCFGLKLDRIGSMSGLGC
# [3] = molecular target: T3, permanent N-terminal CNP-38 PEG 5 kDa conjugate 15e
# T3 chain: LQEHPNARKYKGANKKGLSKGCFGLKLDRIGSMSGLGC
# [4] = molecular target: T4, NPR-B expressed endogenously on NIH-3T3 cells (Murine Embryo Fibroblast cell line) (mouse (endogenous in the murine NIH-3T3 …, UniProt Q6VVW5 17-1047)); test: cell-based or functional assay
# T4 sequence (looked up): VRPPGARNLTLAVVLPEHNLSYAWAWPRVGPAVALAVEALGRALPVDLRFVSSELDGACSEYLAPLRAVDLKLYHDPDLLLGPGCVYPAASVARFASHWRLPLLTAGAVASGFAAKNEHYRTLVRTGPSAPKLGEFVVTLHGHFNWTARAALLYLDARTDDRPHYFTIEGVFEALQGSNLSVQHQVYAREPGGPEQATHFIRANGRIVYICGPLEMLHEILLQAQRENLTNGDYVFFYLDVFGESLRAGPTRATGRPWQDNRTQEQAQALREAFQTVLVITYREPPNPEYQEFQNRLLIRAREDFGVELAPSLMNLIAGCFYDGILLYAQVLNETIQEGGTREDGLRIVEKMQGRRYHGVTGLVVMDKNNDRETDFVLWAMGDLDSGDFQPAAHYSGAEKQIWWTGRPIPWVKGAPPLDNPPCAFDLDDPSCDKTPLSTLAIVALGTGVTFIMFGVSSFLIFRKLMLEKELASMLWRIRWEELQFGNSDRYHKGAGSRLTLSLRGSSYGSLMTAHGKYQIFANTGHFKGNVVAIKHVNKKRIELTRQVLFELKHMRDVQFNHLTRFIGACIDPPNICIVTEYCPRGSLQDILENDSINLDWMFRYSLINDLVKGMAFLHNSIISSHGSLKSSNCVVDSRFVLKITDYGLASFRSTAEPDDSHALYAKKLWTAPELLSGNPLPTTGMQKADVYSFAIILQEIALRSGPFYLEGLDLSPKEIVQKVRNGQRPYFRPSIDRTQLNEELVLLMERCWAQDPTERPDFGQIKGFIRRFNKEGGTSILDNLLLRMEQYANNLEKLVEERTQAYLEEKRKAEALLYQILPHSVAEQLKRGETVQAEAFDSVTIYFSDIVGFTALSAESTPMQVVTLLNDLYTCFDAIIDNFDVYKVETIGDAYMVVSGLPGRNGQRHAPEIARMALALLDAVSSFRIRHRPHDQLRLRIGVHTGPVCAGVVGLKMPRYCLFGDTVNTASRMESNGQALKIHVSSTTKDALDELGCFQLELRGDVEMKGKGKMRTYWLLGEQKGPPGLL
# [5] = molecular target: T4, NPR-B expressed endogenously on NIH-3T3 …; test: cell-based or functional assay; remark: listed apart in the source
Binder,"EC50 compound/EC50 CNP-38 (cGMP stimulation in NIH-3T3 cells, residual NPR-B activity) [4]",other results
recombinant human Neutral Endopeptidase (NEP) (protein) YDDGICKSSDCIKSAARLIQNMDATTEPCTDFFKYACGGWLKRNVIPETSSRYGNFDILRDELEVVLKDVLQEPKTEDIVAVQKAKALYRSCINESAIDSRGGEPLLKLLPDIYGWPVATENWEQKYGASWTAEKAIAQLNSKYGKKVLINLFVGTDDKNSVNHVIHIDQPRLGLPSRDYYECTGIYKEACTAYVDFMISVARLIRQEERLPIDENQLALEMNKVMELEKEIANATAKPEDRNDPMLLYNKMTLAQIQNNFSLEINGKPFSWLNFTNEIMSTVNISITNEEDVVVYAPEYLTKLKPILTKYSARDLQNLMSWRFIMDLVSSLSRTYKESRNAFRKALYGTTSETATWRRCANYVNGNMENAVGRLYVEAAFAGESKHVVEDLIAQIREVFIQTLDDLTWMDAETKKRAEEKALAIKERIGYPDDIVSNDNKLNNEYLELNYKEDEYFENIIQNLKFSQSKQLKKLREKVDKDEWISGAAVVNAFYSSGRNQIVFPAGILQPPFFSAQQSNSLNYGGIGMVIGHEITHGFDDNGRNFNKDGDLVDWWTQQSASNFKEQSQCMVYQYGNFSWDLAGGQHLNGINTLGENIADNGGLGQAYRAYQNYIKKNGEEKLLPGLDLNHKQLFFLNFAQVWCGTYRPEYAVNSIKTDVHSPGNFRIIGTLQNSAEFSEAFHCRKNSYMNPEKKCRVW,,half life norm. [h] (in vitro NEP cleavage assay) [1]: Almost no proteolysis after 4 days.; half life norm. [h] (in vitro NEP cleavage assay) [2]: Almost no proteolysis after 4 days.; half life norm. [h] (in vitro NEP cleavage assay) [3]: Almost no proteolysis after 4 days.
LQEHPNARKYKGANKKGLSKGCFGLK([reversible prodrug linker-branched PEG 4x10 kDa])LDRIGSMSGLGC (disulfide 22-38; reading uncertain) [reversible Lys26 CNP-38 PEG4x10 kDa conjugate 11i],> 100 ratio,
LQEHPNARKYKGANKKGLSKGCFGLKLDRIGSMSGLGC (5 kDa PEG stably attached through a maleimidohexanoyl group at the side chain of Lys26 (ring lysine); disulfide Cys22-Cys38) [permanent Lys26 CNP-38 PEG 5 kDa conjugate 19e],> 100 ratio,
LQEHPNARKYKGANKKGLSKGCFGLKLDRIGSMSGLGC (disulfide 22-38) [Released CNP-38 (isolated by RP-HPLC after 7 d incubation of 11i under physiological conditions)],,EC50 compound/EC50 CNP-38 (cGMP stimulation in NIH-3T3 cells) [5]: 1 ratio
LQEHPNARKYKGANKKGLSKGCFGLK(branched PEG 4x10 kDa)LDRIGSMSGLGC (disulfide 22-38) [permanent Lys26 CNP-38 PEG4x10 kDa conjugate 12g],> 100 ratio,
LQEHPNARKYKGANKKGLSKGCFGLK([reversible prodrug linker-branched PEG 2x20 kDa])LDRIGSMSGLGC (disulfide 22-38; reading uncertain) [reversible Lys26 CNP-38 PEG2x20 kDa conjugate 10f],> 100 ratio,
{PEG 5 kDa-Hexanoyl(6-maleimido)}-LQEHPNARKYKGANKKGLSKGCFGLKLDRIGSMSGLGC (disulfide 22-38) [permanent N-terminal CNP-38 PEG 5 kDa conjugate 15e],> 5 ratio,
